Test results: paper doi:10.1101/2021.09.21.461216 (bioRxiv, 2021)

Target: GST tagged constitutively activated K-Ras4B (GST-K-RasV12) (UniProt P01116-2 1-188, V12)
Experiment: pull-down

B1: BRI3BP domain identified in the two-hybrid assay, overexpressed in mammalian cells (domain or fragment, UniProt Q8BXV2 85-253, looked up)
chain: RFVQGVDMFLETLWKVWMELLEVLGLDVSNLSQYFSPASVSNSPTRALVLVGVVLLAYWFLSLTLGFTFSLLHLVFGRFFWLVRVILFSMSCVYILHKYEGEPEHAVLPLCVVVAIYFMTGPMGYWRGSPGGLCSPSVEEKLEHLENQVRLLNIRLNRVLENLDRSKDK
- fold selectivity for K-Ras over H-Ras: ~7 fold
